Experiments:
[1] = target: LH receptor on bovine granulosa cells and small luteal cells (bovine) (UniProt Q28005); test: cell-based or functional assay
[2] = target: GnRH receptor of rat pituitary membranes (rat) (UniProt P30969); test: radioligand displacement on rat pituitary membranes, equimolar concentrations; reference native GnRH
Chain of UniProt P30969 (P30969 whole entry): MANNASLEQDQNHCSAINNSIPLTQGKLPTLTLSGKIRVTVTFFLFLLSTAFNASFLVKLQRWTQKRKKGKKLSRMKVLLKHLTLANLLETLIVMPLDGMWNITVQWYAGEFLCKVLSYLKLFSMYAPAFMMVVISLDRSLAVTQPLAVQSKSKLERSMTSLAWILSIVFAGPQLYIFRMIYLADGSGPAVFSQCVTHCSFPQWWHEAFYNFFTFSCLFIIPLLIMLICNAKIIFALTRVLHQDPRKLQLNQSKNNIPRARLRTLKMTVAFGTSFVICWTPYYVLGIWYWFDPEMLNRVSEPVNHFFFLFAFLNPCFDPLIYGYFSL

Chain of UniProt Q28005 (Q28005 27-701): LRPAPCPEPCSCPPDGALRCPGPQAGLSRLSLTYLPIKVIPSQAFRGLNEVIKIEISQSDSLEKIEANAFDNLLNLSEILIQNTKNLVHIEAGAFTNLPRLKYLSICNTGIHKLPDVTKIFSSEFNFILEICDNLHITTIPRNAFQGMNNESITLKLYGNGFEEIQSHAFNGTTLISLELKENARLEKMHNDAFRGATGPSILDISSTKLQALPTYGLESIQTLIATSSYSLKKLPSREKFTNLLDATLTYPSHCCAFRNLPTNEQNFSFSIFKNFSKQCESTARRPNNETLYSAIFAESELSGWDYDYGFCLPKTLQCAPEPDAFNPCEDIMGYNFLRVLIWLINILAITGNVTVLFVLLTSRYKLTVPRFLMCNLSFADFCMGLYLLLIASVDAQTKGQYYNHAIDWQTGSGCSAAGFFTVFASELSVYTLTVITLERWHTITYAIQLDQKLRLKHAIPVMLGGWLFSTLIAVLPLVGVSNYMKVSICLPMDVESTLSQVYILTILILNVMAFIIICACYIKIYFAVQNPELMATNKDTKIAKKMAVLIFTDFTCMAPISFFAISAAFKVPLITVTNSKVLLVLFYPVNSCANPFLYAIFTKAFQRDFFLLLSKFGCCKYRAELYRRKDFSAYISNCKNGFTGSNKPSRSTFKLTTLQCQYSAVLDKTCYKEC

Substance | killing of bovine granulosa cells (Trypan Blue exclusion) (fold of the cells killed by hecate alone) [1] | killing of bovine small luteal cells (Trypan Blue exclusion) (fold of the cells killed by hecate alone) [1] | displacement of radiolabelled GnRH as percent of the cpm displaced by native GnRH [2]
hecate-bLH conjugate (peptide) | 2 | 2 | 
D-Lys6GnRH (peptide) |  |  | 187%
